Experimental data as given in the RNAGym collection of RNA variant scans (doi:10.7554/elife.80360).

B1: HDV Ribozyme (parent)
chain: GGCCGGCAUGGUCCCAGCCUCCUCGCUGGCGCCGGCUGGGCAACAUUCCGAGGGGACCGUCCCCUCGGUAAUGGCGAAUGGGACCCA

Variants of: B1
Test: self-cleavage, relative activity (ratio to wild type); higher = more cleavage; co-transcriptional

Variant | self-cleavage
G29C G81A | 0.0639
G29C G53A | 0.133
G29C G53U | 0.0723
G29C G53C | 0.0462
G29U C49G | 0.133
C30A G39C | 0.157
C30A G39A | 0.0489
G29U A77C | 0.13
G29U A77U | 0.117
C30G G74A | 0.0733
G29C G40U | 0.0615
G29U U72C | 0.0811
G29U U72A | 0.218
G29U C62G | 0
G29U C62U | 0.0804
G29U C62A | 0.0773
G29C G67C | 0.104
C30A C75U | 0.101
G29U U47A | 0
C30G C33G | 0.115
C30G C33A | 0.0519
C30A G74U | 0.223
C30A G74A | 0.123
C30G C84A | 0

Variant | self-cleavage
G29U G35C | 0
G29U A42C | 0.125
G29U A51G | 0.0692
G29U A51U | 0.169
G29C C36U | 0.0755
G29C C36G | 0.0536
G29C C57G | 0.133
G29C C57A | 0.125
G29C U65C | 0.138
C30G G80A | 0.141
C30A G31U | 0.0733
C30A G31C | 0.115
C30G G76U | 0.109
C30G | 0.0914
C30A | 0.547
C30G C41G | 0.0707
G29C G82C | 0.0739
C30A G52C | 0.58
C30A G52A | 0.522
G29C G39C | 0.277
G29C G39A | 0.0583
C30A C84U | 0.13
C30A C84A | 0.295
C30A U60C | 0.582

Variant | self-cleavage
C30A U46A | 0.147
C30A U46G | 0.256
C30A G53C | 0.47
C30A A71G | 0.517
C30A A71C | 0.345
G29C C48U | 0.135
G29C G55C | 0.0332
G29C A56G | 0.0615
G29U C58G | 0.0755
G29U C58U | 0.0292
C30A A87C | 0.596
C30G C44G | 0
C30G C44U | 0.0213
G29U C44G | 0.0326
G29U C44A | 0.0297
G29C C61U | 0.119
G29C C61G | 0.032
G29U G39A | 0
G29U G39U | 0.111
C30G U37A | 0.0462
C30G C66A | 0.0282
C30A C36G | 0.148
G29C A70C | 0.0536
G29C A70G | 0.101

Variant | self-cleavage
G29C A70U | 0.0811
G29C U60G | 0.199
G29C U60C | 0.0449
C30G G52C | 0.133
C30G G52A | 0.0287
C30G G52U | 0.02
G29C C75A | 0.138
G29C G54A | 0.0773
G29C G54U | 0.204
G29U A56C | 0.202
G29U A56G | 0.227
G29C C33A | 0.0959
G29U G76U | 0.137
G29U G76C | 0.12
C30A A83C | 0.0811
C30A A83G | 0.127
G29C A87G | 0.086
G29C A87U | 0.0378
G29C A87C | 0.0932
C30A C86G | 0.475
G29C U79G | 0
G29C U79A | 0.147
C30A U69A | 0.353
C30A U69G | 0.469

Variant | self-cleavage
C30A G38C | 0.203
C30A A45U | 0.375
C30A A45G | 0.391
G29U G80A | 0.0934
G29U C66A | 0.201
G29U C66G | 0.0652
G29U G82U | 0.095
G29U G82C | 0.0545
G29U G67C | 0.136
G29U G67U | 0.0817
G29U G67A | 0.12
C30A G67U | 0.339
C30A G67A | 0.623
G29C U72G | 0.208
G29C U72A | 0
C30A C63U | 0.415
C30A C63G | 0.251
G29U C84U | 0.0594
G29U C84G | 0.0277
C30G C85A | 0.0308
C30A C33G | 0.128
C30A C33A | 0.0615
C30A C33U | 0.15
C30G C62A | 0.122

Variant | self-cleavage
C30G C62U | 0.185
G29C G73U | 0.0583
G29C G73C | 0.095
G29C G73A | 0.0707
C30G U69C | 0.18
C30G U69A | 0.148
G29C C62G | 0.155
G29U U37A | 0.0898
G29U U37C | 0.208
C30G C64A | 0.0361
C30G C64G | 0.0396
C30G C64U | 0.126
G29U G31C | 0.141
G29U G50A | 0.104
G29U G50C | 0.153
C30A G76U | 0.554
C30A G76A | 0.585
C30A G76C | 0.464
C30A G80C | 0.272
C30A G82U | 0.166
C30A G82A | 0.0898
C30A G34C | 0.119
C30A G34A | 0.0801
G29C A71C | 0.0536

Variant | self-cleavage
G29U G73A | 0.0898
C30G G34C | 0.107
C30G G34A | 0
C30G G34U | 0.0449
G29C C86U | 0.0739
G29C C86A | 0.0519
C30G G35C | 0.198
C30G G35A | 0.191
C30G G35U | 0.138
C30G U60C | 0.147
G29U G68C | 0.106
G29U U69C | 0.128
G29U U69G | 0.0615
G29C C49G | 0
C30A G40U | 0.183
C30A G40C | 0.0277
C30A C62U | 0.423
C30A G50U | 0.729
C30G C48U | 0.241
G29C C32U | 0.119
G29C C32A | 0.0791
C30G U46C | 0.0831
C30A A56G | 0.529
